Data taken from publication PMC4004102.

Molecular target: AgrC-I (wild type) dimer embedded in nanodiscs (Staphylococcus aureus)
Test: fluorescence polarisation

Substance	Kd [nM]
AIP-I (native autoinducing peptide of agr group 1)	63
AIP-II (native autoinducing peptide of agr group 2)	160
